Assay: yeast display, Sf9 membrane polyspecificity reagent, FACS + sequencing; frameworks hold sequencing errors
How it was run: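 A synthetic nanobody library was expressed on Saccharomyces cerevisiae BJ5465 by galactose induction for 36–48 hours. The library was stained for 1 hour at 4 °C with 10% biotinylated, detergent-solubilized Sf9 membrane reagent and enriched with streptavidin microbeads before FACS. Low and high (top ~1%) gates were set on anti-HA fluorescence for expression and streptavidin fluorescence for reagent binding, and each polyreactivity label reflects the gate of origin.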

| Sequence | polyreactivity (PSR sort gate) |
| --- | --- |
| QVQLVESGGGLVQAGGSLRLSCAASGSILRSNAMGWYRQAPGKERELVAAITFNGGSTYADSVKGRFTISRDNAKNTVYLQMNSLKPEDTAVYYCATGDGPSLFDYWGQGTQVTVSS | low polyreactivity |
| QVQLVESGGGLVQAGGSLRLSCAASGRIFAGYAMGWYRQAPGKERELVAAISSGGGSTYYADSVKGRFTISRDNAKNTVYLQMNSLKPEDTAVYYCARDSYPHGRARFDYWGQGTQVTVSS | high polyreactivity |
| QVQLVESGGGLVQAGGSLRLSCAASGFTFSAYAMGWSRQAPGKERELVAAITLRGGSTYYADSVKGRFTISRDNAKNTVYLQMNSLKPEDTAVYYCAADRIYVAYDYWGQGTQVTVSS | low polyreactivity |
| QVQLVESGGGLVQAGGSLRLSCAASGSIFNKYAMGWYRQAPGKERELVAAISVSGTRTYYADSVKGRFTISRDNAKNTVYLQMNSLKPEDSAVYYCATKFFRTAYEYWGQGTQVTVSS | high polyreactivity |
| QVQLVESGGGLVQAGGSLRLSCAASGIILYYYAMGWYRQAPGKERELVAAISSGGNTYYADSVKGRFTISRDNAKNTVYLQMTSLKPEDTAVYYCAAVTVIGGEYDYWGQGTQVTVSS | low polyreactivity |
| QVQLVESGGGLVQAGGSLRLSCAPSGGTFWIYAMGWYRQAPGKERELVAGITTSGATTYYADSVKGRFTISRDNAKNTVYLQMNSLKPEDTAVYYCAAVIRPRYYQVRPRYDYWGQGTQVTVSS | low polyreactivity |
| QVQLVESGGGLVQAGGSLRLTCAASGSTSYPYAMGWYRQEPGKERELVATITSGGRTNYADSVKGRFTISRDNAKNTVYLQMHSLKPEDTAVYYCNARFYRWRSYGYDYWGQGTQVTVSS | high polyreactivity |
| QVQLEESGGGLVQAGGSLRLSCAASGRTFWDNARGWNRQAPGKERELVATITSGDSTNYAASVKGRFTISRDNAKNTVYLQMNSLKPEDTAVYYCARVIVFDAYEFDYWGQGTQVTVSS | low polyreactivity |
| QVQLVESGGGLVQAGGSLRLSCAASGRTFYYYALGWDRQAPAKERELVAAIRWRGGRTYADSVKGRFTISRDNAKNTVYVQMNSLKPEDTAVYYCAVESFYRHASLYDYWGQGTQVTVSS | high polyreactivity |
| QVQLVESGGGLVQAGGSLRLSCAASGFTFWQYAMGWYRQAPGKERELGAAITWDGGSTYYADSVKGRFTISRDTAKNTVYLQMNSLKPEDTAVYYRAKLFGGTYYEYDYWGQGTQVTVSS | low polyreactivity |
| QVQLVESGGGIVQAGGRLRLSWAASGNTFDYYAMGWYRQAPWKERELVAAITRGGSTNYADSVKGRFTISRDNAKNTVYLQRNSRKPEDTAVYYCAAEQRAPRGADDDYCGQGTQVTVSS | low polyreactivity |
| QVQLVESGGGLVQAGGSLRLSCAASGFIFYPYAMGWYRQAPGKERELVAVITSGGRTYYADSVKGRFTISRDNAKNTVYLQMNSLKPEDTAVYYCAARYGRIHWKANWPEYGYWGQGTQVTVSS | low polyreactivity |
| QDQLVESGGGLVQAGGSLRLSCAASGSTFGYYVMGWYRQAPGKERELVAGISSSGGSTYYADSVKGRFTISRDNAKNTVYLQMNSLKPEDTAVYYCAAVRGTGTRRYDYWGQGTQVTVSS | high polyreactivity |
| QVQLVESGGGLVQAGGSLRLSCADSGFTFISNAKGWYRQAPGKERELVAAISSSGGRTYYADSVKGRFTISRDNAKNTVYLQMNSLKPEDTAVYYCNADRSLLYSRKIEYDYWGQGTQVTVSS | low polyreactivity |
| QVQLVESGGGLVQAGGSLRLSCAASGFTVRYYAMGWYRQAPGKERELVAAISWSGGSTYYADSVKGRFTISRDNAKNTVYLQMNSLKPEDTAVYYCNRETSPKVYYPNDYWGQGTQVTVSS | low polyreactivity |
| QVQLVESGGGLVQAGGSLRLSCAASGRIFRYYAMGWYRQAPGKERELVAAISRSGSTNYADSVKGRFTISRDNAKNTVYLQMNSLKPEDTAVYYCAADSNYLYFWRRYKRMDYWGQGTQVTVSS | high polyreactivity |

| Sequence | polyreactivity (PSR sort gate) |
| --- | --- |
| QVQLVESGGGLVQAGGSLRISCSASGGIFDPYAMGWYRQAPGKERELVAAITNSGGSTYYADSVKGRFTISRDNAKNTVYLQMNSLKPEDSAVYYCAAEGLYVGYDYWGHGTQVTVSS | low polyreactivity |
| QVQLVESGGGLVQAGGSLRLSCAASGFTLSRYAMGWYRQAPGKERELVAAIRWSGGSTYYADSVKGRFTISRDNAKNTVYLQMNSLKPEDTAVYYCATRYYLKFLDGYNYWGQGTQVTVSS | high polyreactivity |
| QVQLVESGGGLVQAGGSLRLSCAASGRTFEHYAMGWYRQAPGKERELVAAINSSDGGTYYADSVKGRFTISRDNAKNTVYLQMNSLKPEDTAVYYCAAAEFGSVPGYEMDYWGQGTQVTVSS | low polyreactivity |
| QVQLVESGGGLVQAGGSLRLSCAASGSTIQQYAMGWYRQAPGKEREFVAAISWRGGRTYYADSVKGRFTISRDKAKNTVYLQMNSLKPEDTAVYYCAVDPSIYRLSAYYYDYWGQGTQVTVSS | low polyreactivity |
| QVQLQESGGGLVQAGGSLRPRCAAGGTIFVSVNRGWYRHAPGEEREFVASITQGATTNYADSLIGRFTISRDNAKNTVYLQMNCQKPEDTAVYYCAVHESGGITFTYWGQGTQVTVSS | high polyreactivity |
| QHHLVESGGGLVQAGGSLRLSCAASGRPLQGYAMGWYRQAPGKHRELVAAITWSGGSTYYADSVKGRFTISRDKAKNTVYLQMNSLKPEDTAVYYCATDDDSARFDYWGQGTQVTVSS | low polyreactivity |
| QVQLVVSGGGLVQAGGSLRLSWAASGIIFYEYAMGWYRQAPGTERELVAAITWSGRTYADSVKGRFTISRDNAKNTVYLQMNSLKPEDTAVYYCNAVYFGGPFFGQYNYWGQGTQVTVSS | low polyreactivity |
| QVQLVESGGGLVQAGGSLRLSCASSGLIFRVYNMGWYRQAPGKERELVAAITGRGGRTYYADSVKGRFTISRDNAKNTVYLQMNSLKPEDTSVYYCATGGRFQQAAYTGFNYWGQGTQVTVSS | high polyreactivity |
| QVQIVESGGGLVQAGGSLRLSCAASGSIFPHYAMGWYRQAPGKERELVAAISRGGSTNYADSVKGRFTISRDNAKNTVYLQMNSLKPEDTAVYYCNALRYYSRFLYAVAYRYDYWGQGTQVTVSS | high polyreactivity |
| QVQLEESGGGLVQAGGSLRLSCAASGFTFRRYDMGWYRQAPGKERELVATINRGGSTDSADSVKGRFTISRDNAKNTVYLQMNSLKPEDTAVYYCATRYYSSRTWSEYYYWGQGTQVTVSS | high polyreactivity |
| QVQLVESGGGLVQAGGSLRLSCAASGRTFSVYTMGWYRQAPGKERELVASINWSGGRTYYADSVKGRFTISRDNAKNTVYLQMNSLKPEDTAVYYCAATGWRTLYDYWGQGTQVTVSS | high polyreactivity |
| QVQHVESGGGLVQEGGSLRLSCAASGRIFRTNAMVWYRQAPGKERELVAAITRDGTTNYADSVKGRFTISRDNAKNTVYLQMNSLIPEDTAVYYCNARYRRSPIKFTYVRYVYEYDYWGQGTQVTVSS | low polyreactivity |
| QVQLVESGGGLVQAGGSLRLSCAASGNIFYYYAMGWYRQAPGKERELVADITSGGDTDYADSVKGRFTISRDNAKNTVYLQMNSLKPEDTAVYYCNAQYYFHVTYDYWGQGTQVTVSS | low polyreactivity |
| QVQLVESGGGLVQAGGSLRLSCAASGSTFDINAMGWYRQAPGKERHLVAAITYDTTTTYYADSVKGRFTISRDNAKNTVYLLMNSLKPEDTAVYYCAVEGLLGDTTYVQGYPYWYNYWGQGTQVTVSS | low polyreactivity |
| QDQLLESGGGLGQAGGSLRLSCAASGITFGRYAMGWYRQAPGKERELVAAITWGGGSTYYADSVKGRFTISRDNAKNTVYLQMNSLKPEDTAVYYCAARSYGRWFGGYDSWGQGTQVTVSS | high polyreactivity |
| QVQLVESGGGLVQAGGSLRLSCAASGFTFYRYTMGWYRQAPGKERELVAAISSGDSTYYADSVKGRFTISRDNAKNTVYLQMNSLKPEDTAVYYCAARQYSRGAIVYYWGQGTQVTVSS | high polyreactivity |

— the nanobody polyreactivity screen of Harvey et al. (2022)
